# Patent US20110243929A1
# How the values were obtained:
# [1] = molecular target: cynomolgus ICOS (cynomolgus); experiment: flow cytometry, cynomolgus splenic naive T cells (CD4+ CD45RA+)
# [2] = molecular target: cynomolgus ICOS (cynomolgus); experiment: flow cytometry, cynomolgus mesenteric lymph node activated T cells (CD4+ CD45RA-)
# [3] = molecular target: cynomolgus ICOS (cynomolgus); experiment: flow cytometry, cynomolgus splenic memory T cells (CD4+ CD45RA-)
# [4] = molecular target: cynomolgus ICOS (cynomolgus); experiment: flow cytometry, cynomolgus mesenteric lymph node naive T cells (CD4+ CD45RA+)
# Sequence of cynomolgus ICOS (cynomolgus) (A0A2K5 entry or part of it limits assumed): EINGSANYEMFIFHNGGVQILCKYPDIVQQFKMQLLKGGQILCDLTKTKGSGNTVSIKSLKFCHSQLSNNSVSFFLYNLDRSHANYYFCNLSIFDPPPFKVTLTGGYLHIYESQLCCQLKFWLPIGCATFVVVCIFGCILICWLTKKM
substance,measurement,setting,value
Isotype Control (antibody),% of gated cells in the positive quadrant,[1],1.7%
same,% of gated cells in the positive quadrant,[2],1.64%
same,% of gated cells in the positive quadrant,[3],2.4%
same,% of gated cells in the positive quadrant,[4],2.8%
